Reference: publication PMC6030046, “Trapping of the transport-segment DNA by the ATPase domains of a type II topoisomerase” (Nature Communications, 2018)

Legend:
[1] = molecular target: Streptococcus pneumoniae topoisomerase IV ParC subunit, full length (Streptococcus pneumoniae) (UniProt P72525)
[2] = molecular target: the molecule itself; assay: crystal structure; ParE44 co-crystallised with 14-mer duplex DNA 5'-…-3', 2 mM AMP-PNP, 10 mM MgCl2; sitting drop, 50 mM HEPES pH 7.0, 5 mM MgCl2, 25% PEG MME 550; through-hole DNA bound complex, space group C2, 2.83 Å
[3] = molecular target: T1, ParE44 (topoisomerase IV ParE ATPase domain) (Streptococcus pneumoniae, UniProt Q59961 1-402); assay: X-ray crystallography (1.97 A); AMP-PNP, Mg2+; side-bound outside the hole, two duplexes per dimer; Co-crystallization: protein:DNA 1:2.2, 10 mM MgCl2, 2 mM AMP-PNP, protein in 20 mM Tris-HCl pH 7.5, 100 mM NaCl, 1 mM 2-mercaptoethanol; 14-mer: 50 mM HEPES pH; settings: protein: recombinant; tags: C-terminal 6xHis; chain copies: 2; blunt; self-complementary
[4] = molecular target: T1, ParE44 (topoisomerase IV ParE ATPase …); assay: X-ray crystallography (2.83 A); AMP-PNP, Mg2+; DNA kinked in the dimer hole, one duplex per dimer; putative intercalated AMP-PNP; Co-crystallization: protein:DNA 1:2.2, 10 mM MgCl2, 2 mM AMP-PNP, protein in 20 mM Tris-HCl pH 7.5, 100 mM NaCl, 1 mM 2-mercaptoethanol; 14-mer: 50 mM HEPES pH; settings: protein: recombinant; tags: C-terminal 6xHis; chain copies: 2; blunt; self-complementary

Row | Molecule | Cleavage: ATP-independent quinolone-promoted DNA cleavage activity of topo IV reconstituted from ParC and ParE, relative to wild type [1] | also measured
1 | ParE K281Q/D282A, full length (from UniProt Q59961 1-647) (enzyme) | 100% | –
2 | ParE K291Q, full length (from UniProt Q59961 1-647) (enzyme) | 100% | –
3 | Streptococcus pneumoniae topoisomerase IV ParE subunit, wild type, full length (from UniProt Q59961 1-647) (enzyme) | 100% | –
4 | ParE R396Q, full length (from UniProt Q59961 1-647) (enzyme) | 100% | –
5 | ParE R353Q, full length (from UniProt Q59961 1-647) (enzyme) | 100% | –
6 | ParE R353A, full length (from UniProt Q59961 1-647) (enzyme) | 100% | –
7 | ParE K346Q, full length (from UniProt Q59961 1-647) (enzyme) | 100% | –
8 | ParE S268A, full length (from UniProt Q59961 1-647) (enzyme) | 100% | –
9 | ParE K313Q/E316Q, full length (from UniProt Q59961 1-647) (enzyme) | 100% | –
10 | ParE K346Q/R353A, full length (from UniProt Q59961 1-647) (enzyme) | 100% | –
11 | ParE R400Q, full length (from UniProt Q59961 1-647) (enzyme) | 100% | –
12 | ParE R321Q, full length (from UniProt Q59961 1-647) (enzyme) | 100% | –
13 | ParE D269V, full length (from UniProt Q59961 1-647) (enzyme) | 100% | –
14 | Streptococcus pneumoniae ParE44 ATPase domain (residues 1-402) (domain or fragment, UniProt Q59961 1-402, looked up, ParE subunit of topoisomerase IV, Streptococcus pneumoniae, UniProt Q59961, residues 1-402 (ATPase domain); Crystallised as a closed dimer with AMP-PNP, Mg2+ and duplex DNA; also called ParE ATPase domain; N-terminal ParE44; source: E. coli BL21 λDE3, purified (Ni-NTA)) MSKKEININNYNDDAIQVLEGLDAVRKRPGMYIGSTDGAGLHHLVWEIVDNAVDEALSGFGDRIDVTINKDGSLTVQDHGRGMPTGMHAMGIPTVEVIFTILHAGGKFGQGGYKTSGGLHGVGSSVVNALSSWLEVEITRDGAVYKQRFENGGKPVTTLKKIGTAPKSKTGTKVTFMPDATIFSTTDFKYNTISERLNESAFLLKNVTLSLTDKRTNEAIEFHYENGVQDFVSYLNEDKEILTPVLYFEGEDNGFQVEVALQYNDGFSDNILSFVNNVRTKDGGTHETGLKSAITKVMNDYARKTGLLKEKDKNLEGSDYREGLAAVLSILVPEEHLQFEGQTKDKLGSPLARPVVDGIVADKLTFFLMENGELASNLIRKAIKARDAREAARKARDESRNG | – | binding result [2]: binds
15 | 6-mer GCGCGC duplex (dsDNA) DNA 1: GCGCGC DNA 2: GCGCGC | – | binding result [3]: binds
16 | 14-mer T-segment duplex (dsDNA) DNA 1: GCATATATATATGC DNA 2: GCATATATATATGC | – | binding result [4]: binds
